Measurements taken from patent EP0758381B1.

Columns and labels:
[1] = target: Eck receptor chimera (ectodomain of the Eck receptor fused to the cytoplasmic domain of the FGF receptor) on BAF cells; assay: cell-based or functional assay
[2] = target: Elk receptor on transfected 3T3 fibroblasts; assay: cell-based or functional assay

potency in the proliferation assay, clustered against unclustered ligand [1] [fold]	potency in the phosphorylation assay, clustered against unclustered ligand [2] [fold]	Substance
100	–	soluble Efl-2 (EHK-1L) produced in COS cells (ligand)
100	–	soluble myc-tagged Efl-1 (B61) (ligand)
–	100	soluble myc-tagged Efl-3 (ELK-L) (ligand)
